In patent publication EP4324849A1 (Emergence Therapeutics AG, dated 2024):
One block for each binder: values may come before it.

Key:
[1] = biological target: T1, his-tagged recombinant extra cellular domain of the Nectin-4 protein (R&D systems/Biotechne) (Homo sapiens (Human), UniProt Q96NY8 32-349); experiment: BLI (Octet Red96), His-Nectin-4 ECD as analyte
T1 construct: Bought protein; also called His-Nectin-4; recombinant his-tagged Nectin-4 EC; not shown: His tag
T1 sequence: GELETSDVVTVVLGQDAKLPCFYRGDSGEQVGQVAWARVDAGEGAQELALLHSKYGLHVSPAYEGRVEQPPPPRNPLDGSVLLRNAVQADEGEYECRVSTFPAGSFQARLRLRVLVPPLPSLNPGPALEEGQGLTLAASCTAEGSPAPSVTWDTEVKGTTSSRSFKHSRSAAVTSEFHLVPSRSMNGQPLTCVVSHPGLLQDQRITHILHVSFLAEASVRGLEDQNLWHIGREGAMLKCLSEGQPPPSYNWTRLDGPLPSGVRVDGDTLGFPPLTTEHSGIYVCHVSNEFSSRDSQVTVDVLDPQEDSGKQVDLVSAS

[2] = biological target: T1, his-tagged recombinant extra cellular …; experiment: BLI (Octet Red96), antibody on AHC sensor, His-Nectin-4 ECD as analyte, 1:1 model
[3] = biological target: T2, homodimer recombinant Fc protein, IgV domain of human Nectin-4 fused to human Fc domain (human, UniProt Q96NY8 32-146, limits assumed); experiment: BLI (Octet Red96), antibody on FAB2G sensor, IgV-Fc homodimer as analyte, 1:2 bivalent analyte model
T2 construct: also called Fc-Nectin-4; Fc fusion IgV Nectin-4 domain; not shown: human Fc domain
T2 sequence: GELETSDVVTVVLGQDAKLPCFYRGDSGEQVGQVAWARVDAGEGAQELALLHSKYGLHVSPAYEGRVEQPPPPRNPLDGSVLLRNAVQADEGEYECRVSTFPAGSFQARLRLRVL

Kd [1]: 3.4 nM
koff [1]: 0.000928 s⁻¹
kon [1]: 275000 M⁻¹ s⁻¹
Kd [2]: 4.2 nM
Kd [3]: 5.3 nM
B1: Ch-5A12.2 (parental chimeric 5A12.2 monoclonal anti-Nectin-4 antibody) (antibody, V domains shown)
VH: QIQLQQSGAELVKPGASVTLSCKTSGFTFNSMYISWLKQKPGQSLEWIAWIYAGTGGTRFNQKFTGKVQLTVDTSSSTAYMQFSSLTTDDSAIYYCAIRSGFVPMDYWGQGTSVTVSS
VL: SIVMTQTPKFLLVSAGDRVTITCKASQSVSNDVAWYQQKPGQSPKLLIYYASNRYTGVPDRFTGSGYGTDFTFTISTVQAEDLAVYFCQQDYSSPWTFGGGTKLEIK

Kd [2]: 5.2 nM
Kd [3]: 12.9 nM
B2: HA22 (Enfortumab), human monoclonal anti-Nectin-4 antibody (antibody, V domains shown)
VH: EVQLVESGGGLVQPGGSLRLSCAASGFTFSSYNMNWVRQAPGKGLEWVSYISSSSSTIYYADSVKGRFTISRDNAKNSLSLQMNSLRDEDTAVYYCARAYYYGMDVWGQGTTVTVSS
VL: DIQMTQSPSSVSASVGDRVTITCRASQGISGWLAWYQQKPGKAPKFLIYAASTLQSGVPSRFSGSGSGTDFTLTISSLQPEDFATYYCQQANSFPPTFGGGTKVEIK
